Targets include HLA-A*02:01; HLA-A*02:02; HLA-A*02:05.
Common to all, as to assay: IEDB peptide-MHC binding, cellular MHC/competitive/radioactivity; ≥ and ≤ were set here for values at or beyond the usual limits of such assays
Setting [1] is: source organism: Hepatitis B virus subtype adw2.
[2] abbreviates: source organism: Human immunodeficiency virus 1.
[3] abbreviates: source organism: Human immunodeficiency virus type 1 BH10.

A word on the IC50: it is the concentration that inhibits the measured activity by half. In the case of IVGAETFYV, the concentration for half-maximal inhibition (IC50) is 3.5 nM with HLA-A*02:01 (source organism: HIV-1 M:B_MN), 62 nM with HLA-A*02:02 (source organism: HIV-1 M:B_MN) and 6.5 nM with HLA-A*02:05 (source organism: HIV-1 M:B_MN).

As for LLPIFFCLWV, the half-maximal inhibitory concentration (IC50) with HLA-A*02:05 (setting [1]) is 10000 nM.

Regarding EADPTGHSY, the concentration for half-maximal inhibition (IC50) in the test with HLA-A*02:01 (source organism: Homo sapiens), with HLA-A*02:02 (source organism: Homo sapiens) and with HLA-A*02:05 (source organism: Homo sapiens) was 10000 nM throughout.

Take YLHTLWKAGI: the IC50 turned out to be 53 nM with HLA-A*02:02 (setting [1]) and 57 nM in the test with HLA-A*02:05 (setting [1]).

With LLGRNSFEV, the half-inhibitory concentration (IC50) with HLA-A*02:02 (source organism: Homo sapiens) amounted to 87 nM; with HLA-A*02:05 (source organism: Homo sapiens) it was 19 nM.

Turning to WLSLLVPFV, the IC50 turned out to be 34 nM with HLA-A*02:02 (setting [1]) and 4 nM with HLA-A*02:05 (setting [1]).

Turning to DPKVKQWPL, the half-inhibitory concentration (IC50) in the test with HLA-A*02:02 (setting [2]) and with HLA-A*02:05 (setting [2]) was 10000 nM in each case.

On to STLPETTVVRR, for which the IC50 is 1310 nM in the test with HLA-A*02:01 (setting [1]), 10000 nM in the test with HLA-A*02:02 (setting [1]) and 10000 nM with HLA-A*02:05 (setting [1]).

Consider ILKEPVHGV, for which the IC50 in the test with HLA-A*02:02 (setting [3]) is 150 nM; with HLA-A*02:05 (setting [3]), 9.4 nM.

For the origin of these results see the Immune Epitope Database (IEDB).
